Measurements as given in paper PMC10379010, “Short Peptides of Innate Immunity Protein Tag7 (PGLYRP1) Selectively Induce Inhibition or Activation of Tumor Cell Death via TNF Receptor” (International Journal of Molecular Sciences, 2023).

T1: soluble TNFR1 receptor domain (sTNFR1) (UniProt P19438 30-211, fluorescently labeled with Alexa Fluor 633 or Alexa Fluor 488 in the MST only)
T1 construct: TNF receptor TNFR1, soluble extracellular domain (sTNFR1); also called soluble TNFR1 site; source: recombinant, obtained as described in [10], purified
T1 sequence (looked up): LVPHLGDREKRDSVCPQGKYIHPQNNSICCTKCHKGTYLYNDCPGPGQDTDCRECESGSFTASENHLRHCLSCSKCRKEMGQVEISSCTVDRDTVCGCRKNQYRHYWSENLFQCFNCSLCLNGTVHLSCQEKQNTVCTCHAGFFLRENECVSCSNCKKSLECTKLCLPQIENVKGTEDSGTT


Target: T1, soluble TNFR1 receptor domain (sTNFR1)
Experiment: MST; sTNFR1 or Hsp70 labeled with Alexa Fluor 633 or 488 (200 nM), 20 min in the dark at room temperature with 16 concentrations of each compound; Monolith NT 115, IR laser power 10%; apparent Kd; triplicate
Conditions: both partners purified

Binder | Kd
HRDVQRT (Not biotinylated; used in the MST and the cytotoxicity tests; source: synthetic peptide (Fmoc, HPLC purified)) [peptide 17.1A] | 5.44 nM
Tag7 protein (PGLYRP1) (natural protein, UniProt O75594 22-196, looked up, Tag7 (PGLYRP1), innate immunity protein; also called full-sized Tag7 protein; source: recombinant, obtained as described in [10]) QETEDPACCSPIVPRNEWKALASECAQHLSLPLRYVVVSHTAGSSCNTPASCQQQARNVQHYHMKTLGWCDVGYNFLIGEDGLVYEGRGWNFTGAHSGHLWNPMSIGISFMGNYMDRVPTPQAIRAAQGLLACGVAQGALRSNYVLKGHRDVQRTLSPGNQLYHLIQNWPHYRSP | 43.2 nM
